Data as given in patent US5691166.

How the values were obtained:
[1] = biological target: acid-denatured hemoglobin
[2] = biological target: epidermal growth factor (recombinantly synthesized molecule consisting of the first 52 amino acids of the authentic 53 amino acid EGF molecule)
[3] = biological target: growth hormone releasing factor (recombinantly synthesized as described in EP 206783)

## Saccharomyces cerevisiae proteinase A (encoded by the S. cerevisiae PEP4 gene) (from UniProt P07267) (enzyme)
[1]
  proteinase A activity, ΔOD/µg protein (release of amino acids from acid-denatured hemoglobin, 90 min) (ΔOD/µg protein): 28.1

## proteolytic activity of the cell-free broth from the one-liter fermentation of the pep4 P. pastoris strain p13
[2]
  intact peptide remaining after 8 h incubation in broth (reverse phase HPLC): > 90 % intact
[3]
  intact peptide remaining after 4 h incubation in broth (reverse phase HPLC): > 60 % intact

## Pichia pastoris proteinase A (product of the Pichia PEP4 gene) (enzyme)
[1]
  proteinase A activity, ΔOD/µg protein (release of amino acids from acid-denatured hemoglobin, 90 min) (ΔOD/µg protein): 13.1

## proteolytic activity of the cell-free broth from a one-liter fermentation of the HIS4 PEP4 P. pastoris strain G+PAO804H2
[2]
  intact peptide remaining after 8 h incubation in broth (reverse phase HPLC): < 10 % intact
[3]
  intact peptide remaining after 4 h incubation in broth (reverse phase HPLC): < 10 % intact
